Reference: the DeepSol protein solubility set

Assay: soluble on expression in E. coli; label from the status in PepcDB or PDB records

**Q.** For “GMTFEPYPFERLRALLKEITPKKRGLDLGIGEPQFETPKFIQDALKNHTHSLNIYPKSAFEESLRAAQRGFFKRRFKIELKENELISTLGSREVLFNFPSFVLFDYQNPTIAYPNPFYQIYEGAAKFIKAKSLLMPLTKENDFTPSLNEKELQEVDLVILNSPNNPTGRTLSLEELISWVKLALKHDFILINDECYSEIYENTPPPSLLEACMLAGNEAFKNVLVIHSLSKRSSAPGLRSGFIAGDSRLLEKYKAFRAYLGYTSANAIQKASEAAWLDDRHAEFFRNIYANNLKLARKIFKNTLIYPYSFYVYLPVQNGENFAKTLYQNEGIITLPALYLGRNRIGADYVRLALVYDTPLLEKPLEIIETYRENHA”, which “soluble on expression in E. coli” value is on record?
**A.** soluble

**Q.** With “GMTLPPYHTPLPAETLRALSIPAPWTFGLADRVRFGELDAIGHVNHTAYLRWYESFRLPFLKARHVTDYGPTSPRLVLKQVHCTYLAEMGMGEDYVITGRVSNFRTTSFTMEFACWRLGDAVECTSEGSAVVVLLNRDGSGRYPIPEAGRASFVTEDGVLAAG” as the sequence, how does the “soluble on expression in E. coli” value read?
**A.** soluble

**Q.** Which “soluble on expression in E. coli” value does the source give for “GPGGSPGGLQKRHARVTVKYDRRELQRRLDVEKWIDGRLEELYRGREADMPDEVNIDELLELESEEERSRKIQGLLKSCTNPTENFVQELLVKLRGLHK” here?
**A.** soluble

**Q.** With “GPGSGLTELQMRARRCPNRQARIDWSEGEVRSFYQALSQYGTDFSAIAVLFPSRSRRDIKRLYQREMRQKPKEVQAALNQKHPIDMAVFEVRYEAKKKEAQQPVKMKKLNSEELAFLDEIAGRQPSESAMHMKGEELEVPVPAATLGGVEEATAAPPSRLRKRPRGTHQADSEDGPESKRATKEIPPAADDDFDMEQESFFDMVVRHEREDNAPLDMLFAAQLEQGQQQHLAALEDSDFSFE” as the sequence, how does the “soluble on expression in E. coli” value read?
**A.** soluble

**Q.** Which “soluble on expression in E. coli” value does the source give for “GPGSMACARDHLRQTRTHQRHASTRDGQRMRAVSLAADPACTHPPTHTHTHIYTPIYVCRGFVCVTPQWRTELFNVVLLWRRAHTSLLSAACLCPYAQASPSCLHASFLSRLPRLSLSLSPCSCLHPHSTGVFAYIVFLRCRAATQNTSPVSSCVVRLVTRDLCAQSPTPPLPALCGHRNLVSLHRRKTPRLKRRVRTQATQRSDHRSSLIMPVFHAVMSVKESERVERIAPVKNRAWGLRFQCASCNEESTGMMYVNQTEQHERDGGMHNFVSKCKLCKADITADVLPVPAGTGYYSAEEENPANVIAAFEVRGGRPVELEIDNQWMIVTAGGGLFEDVDLSQEWYDYDESSQATVSVAGVSVDFEKSKKK” here?
**A.** not soluble

**Q.** Which “soluble on expression in E. coli” value does the source give for “GPGSMAHSLTWKLLSPEQTHECLTAPDVPSIRSVLKKIDEACDGKLIGAAKYNEGKVMIVLDMLAHLILFCKSRSMSPEKVSTLVGIVIKIHEESMSGGYTRAKSYHLMRDLMIKHSVPRPPFSCGVFTVRDAQEIDEYMLRSYYRHYKMYFYAFVPRQVMNVRCLDVTHIHQVPPVGLPSLSTAVVESEWRTKVEEQRREAEEQAMQEGEIASDAYEEERMRNRLLADPHYSDGIREQLECIKKEVSSKAVGRLDEIEMRLQEIEKKVAESFARSDSKQGRRKK” here?
**A.** soluble

**Q.** With “GPGSMASTSGPASLEEAALASLGNYSPEQLQMAETALRAVLMEKVQALAAEHGDAFIQSLVQKEIARTRKMETELANVKKRLGVQERCVDSMRMDVRKVKAQEEKSKYICQNLQETARRREQLTEKMQPEMEAYRSDVRERVSENVQSIWAECEKRRERVETVEAEVTELEAGLAHKKETFERSFAEFQDGLKGRTAEYQELIVAYQEATKEVELIEAQLMLVRRERQSVETTRAALQQQLEVYEKQFDGFAEAVMKPEDVEALAKRQHDQAQMRITELEAEKTNVHQQRLQMDKELTDLRAKHASLKREMQQLEKAKTAAEKKCRQAQQSRQEKK” as the sequence, how does the “soluble on expression in E. coli” value read?
**A.** not soluble

**Q.** Which “soluble on expression in E. coli” value does the source give for “GPGSMDDGFSRILLAWFSNNPSFGKTIPVTAGQAVLNTLYIRYVVNKSVSFEDILAYQFRWVSANDAATEVFNKFTDGKESMTSEQLGKFLRDVQRSDVTDRQIVEKFKYCFGGGIHKYNFISYNGSVLTNNAIDPARTSDVWQDMTQSFTHYMVSCARIEAEEDLKRAAADGTRALVLNINKASNGKLMVGSCELQTILEGVKKNGFATNTYPIVLCLSPGTPMPTPVQDEVAKMINDILESAVAEGLMFEGAMINDPKFSPGALRNKVLVMSHQSRLKPFIGFLVADMNKDGLGVRVTDVMEGTPASKGGVLKDDWLTHINGIPIQNKQHLRETLARLKAGDEFTVRRENLHDVKVVVGGAIDPQDTTASASLSSITFFKYSDSNDPKPWDTERIPASSLATTKLTRKDLLTHFAFCTVNSAEASTELPDAEGKAASLGIQFVDVDNSERCLPWTRGRFSDNGRCGYILKTDIDSAKSPELSLSVIGGPRLLNCSPLTSMNVTIHGAGTARVNGSQVSFTDCNQATIAVVQMTFEANGAERTFTSAFCPGLLRPGYRALPSVPFGEERASKKQIHGIYCFIK” here?
**A.** not soluble
